The record followed here is the nanobody polyreactivity screen of Harvey et al. (2022).

A short description of the data set: yeast display, Sf9 membrane polyspecificity reagent, FACS + sequencing; frameworks hold sequencing errors. A digest of the protocol: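 Using colony PCR, genes from sorted yeast display clones were amplified, then sequenced on MiSeq at 2 × 250 and filtered by CDR length. The clones had been stained with 10% biotinylated, detergent-solubilized Sf9 membrane reagent for 1 hour at 4 °C and sorted by FACS into low and high (top ~1%) gates on anti-HA and streptavidin fluorescence. Polyreactivity labels come from the gate of origin.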
“QVQLEESGGGLVQPGGSLRLSCAASGRIFADYAMGWYRQAPGKERELVADIRQSGGRTYYADSVKGRFTISRDNAKNTVYLQMNSLKPEDTALYYCATDYGSWGDYSGKYDYWGQGTQVTVSS”: the “polyreactivity (PSR sort gate)” value is on record as “low polyreactivity”. As to “QVQLVESGGGLVQAGGSLRLSCAASGRIFVGYAMGWYRQAPGKERELVAAITGSGGGTYYADSVKGRFTISRDNAKNTVYLQMNSLKPEDTAVYYCNARYRSYYVTQRLDYWGQGTQVTVSS”, the “polyreactivity (PSR sort gate)” value is “high polyreactivity”.

Turning to “QVQLVESGGGLVQAGGSLRLSCAASGFTFFTNAMGWYRQAPGKERELVATITSNGSTNYADSVKGRFTISRDNAKNTVYLQMISLKPEDTAVYYCAADQDSVSMDYWGQGTQVTVSS”, the “polyreactivity (PSR sort gate)” value is reported as “low polyreactivity”. To “QVQHVESGGGLVQAGGSLRLSCAASGRTFNGYAMGWYRQAPGKERELVAAIRSTTGSTYYADSVKGRFTISRDNAKNTVYLQMNSLKPEETAVYYCAAAYPFYADMDYCGQGTQVTVSS” belongs “low polyreactivity”; to “QVQLVESGGGLVQAGGSLRLSCAASGRTFKYNAMGWYRQAPGKERELVAVISYDGSTYYADSVKGRFTISRDNAKNTVYLQMNSLKPEDTAVYYCAARYLDVRPYYYWGQGTQVTVSS”, “high polyreactivity”. To “QVQIVESGGGLVQAGGSLRISCAASGLTFHRYAMGRYRQAPGKERELVAAINYSGGRTYYADSVKGRFTISRDNAKNTVYLQMNSLKPVDTAVYYCAAPRASGYYWGQGTQVTVSS” belongs “high polyreactivity”. The entry for “QVQLVESVGGLVQAGGSLRLSCPASGSTFRRYAMGWYRQAPGKERELVAAITRGGITYYADSVKGRFTISRDNAKNTFYLQMNSLKPEDTAVYYCAATTFGPYALYPRYYYWGQGTQVTVSS” is “high polyreactivity”. As to “QVQLVESGGGLVQAGGSLRLSCAASGRILPSNAMGWYRQAPGKERELVAGITSGGSTDYADSVKGRFTISRDNAKNTVFLQMNSLKPEDTAVYYCNKPFPYYPDGPNGYDYWGQGTQVTVSS”, the “polyreactivity (PSR sort gate)” value is on record as “low polyreactivity”. To “QVQLVESGGGLVQAGGSLRLSCAASGRIFVVYAMGWYRQAPGKERELVAAITYGGGSTHYADSVKGRFTISRDNAMNTVYLQMISLKPEDTAVYYCAADLFYHSYGYEYWGQGTQVTVSS” belongs “low polyreactivity”; to “QVQLVESGGGLVQAGGSLRLTCAASGRIFIYNTMGWYRQAPGTERELVATISSGGRTYYADSVKGRFTISRDNAKNTVYFQMNSLKPEDTAVYYCNARRRYYSVWRGWDNELDYWGQGTQVTVSS”, “high polyreactivity”; to “QVQLVESGGGLVQAGGSLRLSCAASGYIFGAYAMGWYRPAPGKERELVAGITASGDSTYYADSVKGRFTISRDNAKNTVYLQMNSLKPEDTAVYYCNAQPDIGLYDRQWKEPYEYWGQGTQVTVSS”, “low polyreactivity”.

As to “QVQLVESGGGLVQAGGSLRLSCAASGSTILINAMGWYRQAPGKERELVAAISRDGSTNYADSVKGRFTISRDNAKNTVYLQMNSLKPEDTAVYYCAAVPGISVGRQPGYDYDYWGQGTQVTVSS”, the “polyreactivity (PSR sort gate)” value is listed as “low polyreactivity”. On to “QVQLVESGGGLVQAGGSLRLSCAASGNIFLYYAMGWYRKAPGKERELVADIDSSGASTYYADSVKGRFTISRDNAKNTVYLQMNSLKPEDTAVYYCPAEFHWWYAGYDYGYWGLGTQVTVSS”, for which the “polyreactivity (PSR sort gate)” value is recorded as “low polyreactivity”. The entry for “QVQLVDSGGGSVQAGGSLRLSCAASGRTFPYYAMGWYRQAPGKERELVAAITIGNTNYADSVKGRFTISRDNAKNTVYLQMNSLKPEDTAVYYCNASHVSHYRARDYWGQGTQVTVSS” is “low polyreactivity”. For “QVQLLESGGGLVQAGGSLRLSCAASGRTFRYYAMGWYRQAPGKERELVAAITANGGSTYYADSVKGRFTISRDNAKNTVYLQMNSLKPEDTAVYYCAAKYNTKLYYWGQGTQVTVSS”, the “polyreactivity (PSR sort gate)” value is reported as “high polyreactivity”.

Turning to “QVQLVESGGGLVQAGGSLRLSCAASGGTFRAYAMGWYRQAPGKEREFVAAITWSGGRTYYADSVKGRFTISRDNANNTVYLQMNSLKPEDTEVYYCATDQGHYYHAEHDYWGQGTKVTVSS”, the “polyreactivity (PSR sort gate)” value is on record as “low polyreactivity”. The entry for “QVQLVESGGGLVQAGGSLRLSCAASGIIFSYYTMGWYRQAPGKERELVAAISARGGRTYYADSVKGRFTISRDNAKNTVYLQMNSLKPEDTAVYYCAASWSTEYYWGQGTQVTVSS” is “high polyreactivity”; for “QVQLVESGGGLVQAGGSLRLSCAASGSTFVLNAMGWYRQAPGKERELVAAISSGGRTYYADSVKGRFTISRDNAKNTVYLQMNSLKPEDTAVYYCAAKPYRGGHRTLFGYWGQGTQVTVSS” it is “high polyreactivity”; for “QVQLVESGGGLVQAGGSLRLSCASSGSNFGRYAMGWYRQAPGKEREFVAAISRSSDNTSYADSVKGRFTISRDIAKNTVYLQMNRLNPEDRAVYYCNADRPFSLGQRKYVDFDEPYNYWGQGTQVTVSS” it is “low polyreactivity”. Regarding “QVQLVESGGGLVQAGGSLRLSCAASGRTFFNYGMGWYRQAPGKEREFVARISFSGGSTYYADSVKGRFTISRDNAKNTVYLQMNSVKPEDTAVYYCNARVFPFAYRYGYWGQGTQVTVSS”, the “polyreactivity (PSR sort gate)” value was “high polyreactivity”.

Turning to “QDQHVESGGGLVQAGGSLRLSCAASGSIFWYYAMGWYRQEPGKERELVAAISRSGGSTYYADSVKGRFTISRDNAKNTVYLEMNSLKPEDTAVYYCAAGYSSLRRFGVYYWGQGTQVTVSS”, the “polyreactivity (PSR sort gate)” value is given as “high polyreactivity”.

In the case of “QVQLVESGGGLVQAGGSLRLSCAASGRTFTIYAMGWYRQAPGKEREFVASITGSDGSTYYADSVKGRFTISRDNAKNTVYLQMNSLKPEDTAVYYCAAKRYVYPSYRFDYWGQGTQVTVSS”, the “polyreactivity (PSR sort gate)” value is “low polyreactivity”. Consider “QVQLVESGGGLVQAGCSLRLSCAASGRIFTSYAMGWYRQAPGKERELVAAISRSGARTYYADTVKGRFTISRDNAKNTVYLQMNSLKPEDTAVYDCAAVTVAGYDYWGQGTQVTVSS”, for which the “polyreactivity (PSR sort gate)” value was “high polyreactivity”. To “QLQLVESGGGLVQAGGSLRLSCAASGITFPFYDMGWYRQAPGKEREFVAAISWSAGNTYYADSVKGRFTISRDNAKNTVYLQMNSLKPEDTAVYYCAAYGPSYEEDYWGQGTQVTVSS” belongs “high polyreactivity”; to “QVQLVESGGCLVQAGGSLRLICAASGSIFDINAMGWYSQAPGKERELVADIRRGDSTNYADSVKGRFTISRDNAKNTVYLQMNSLKPEDTAVYYCAARWRRSIYGFYPQRPYDYWGQGTQVTVSS”, “high polyreactivity”. As to “QVQLVESGGGLVQAGGSLRLSCAASGRTFGVYAMGWYRQAPGKERELVAVIRVIGGSTNYADSVKGRFTISRDNAKNTVYLQMNSLKPEDTAVYYCAADQYYSSDYDYWGQGTQVTVSS”, the “polyreactivity (PSR sort gate)” value was “low polyreactivity”. For “QVQHVESGGGLVQAGGSLRLGCPASGIIFIAYAMGWYRQAPGKERELVADISIGGSTNYADSVKGRFTISRDNAKYTVYLQMNSLKPEDTAVYYCAKRPKNKPVLGDYDHWGQGTQVTVSS”, the “polyreactivity (PSR sort gate)” value is on record as “low polyreactivity”. The entry for “QVQLVESGGGLLQAGGSLRLSCAASGRIFAVYAMGWYRQAPGKEREFVAAISYSGGITYYADSVKGRFTISRDNAKNTVYLQMNSLKPEDSAVFYCNSYYYFWGQGTQVTVSS” is “low polyreactivity”; for “QVQLVESGGGLVQAGGRLRLSCAASGRIFYPYDMGWYRQEPGKERELVAAISRSDGITYYADSVKGRFTISRDNAKNTVYLQMKSLKPEDTPVYYCAADDPSGHYPDFEYWGQGTQVTVSS” it is “low polyreactivity”; for “QVQLVESGGGLVQAGGSIRLTCAASGRIFYLNAMGWYRQAPGKEREMGAAITWSGGRTYYADSVKGRFTISRDNAKNTVYLQMNSLKPEDTAVYYCAAVPRPGPNTVLTPYGYWGQGTQVTVSS” it is “high polyreactivity”. Consider “QVQLVESGGGLVQAGGSLRLSCAASGFIFARNAMGWYRQAPGKERELVATITRSSGSTYYADSVKGRFTISRDNAKNTVYLQMNSLKPEDTAVYYCNARLYGTFWGQGTQVTVSS”, for which the “polyreactivity (PSR sort gate)” value was “high polyreactivity”. To “QVQLVESGGGIVQAGGSLRLSCAASGFIFRYAMGWYRPAPGKERELVAAISSSGGSTNYADSVKGRFTISRDNAKNTVYLQMNILKPEDSAVYYCAADQYYGGSWWYDYWGQGTQVSVSS” belongs “high polyreactivity”. To “QVQLVESGGGLVQAAPSLRLSCAASGSTINNNAMGWYRQAPRKERELVAAIDSGFSTNYADSVKGRFTISRDNAKNTVYLQMNSLKPEDTAVYYCYADPDYFDYWGQGTQVTVSS” belongs “low polyreactivity”. Turning to “QVQHVESRGGLVQAGGSLRLSCAASGRTFQANAMGCYRQAPGKERELVAAITGRGGTTYYADSVKGRFTISRDNAKNTVYLQMNSLKPEDTAVYYCARALSGYGFWGYEYWGQGTQVTVSS”, the “polyreactivity (PSR sort gate)” value is recorded as “low polyreactivity”. The entry for “QVQLVESRGGLVQAGGSLRLSCAASGSTFVRNAMGWYRQAPGKERELVAAISRSGGRTYYADSVMGRFTISRDNAKNTVYLQMNSLKPDDTAVYYCAKKRSKAISFDYWGQGTQVTVSS” is “high polyreactivity”; for “QVQLVESGGGLVQAGGSLRLSCAASGFIFWYYAMGWYRQAPGKERELVAAISSRGGSTYYADSVKGRFTISRDNAKNTVYLQMNSLKPEDTAVYYCNARYVYYGSGNDYWGQGTQVTVSS” it is “high polyreactivity”.

With “QVQLVESGGGLVQAVGSLRLSCAASGSIFRRNVMGWYRPAPGKERELVATLTVGGSTYYADSVKGRFTISRDNAKNTVYLQMNSLIPEDTAVYYCAAYSPYLRSWYDYWGQGTQGTVSS”, the “polyreactivity (PSR sort gate)” value is recorded as “high polyreactivity”.

For “QVQLVESGGGLVQAGGSLRLTCAASGNIFYTYAMGWYRQPPGKERELVAGLSSDGSTTYADSVKGRFTISRDNAKNTVYLQMNSLNPEDTAVYYCPADITGILWYGYYYWGQGTQVTVSS”, the “polyreactivity (PSR sort gate)” value is recorded as “low polyreactivity”. With “QVQLVESGGGLVQAGGSLRLTCAASGRTFGPYAMGWYRPAPGKERELVAAIRYIDDSTFYADSVKGRFTISRDNAKNTVYLQMNSLKPEDTAVYYCAAQRRVVGRHGLSLIRYDYWGQGTQVTVSS”, the “polyreactivity (PSR sort gate)” value was “low polyreactivity”. To “QVQLVESGGGLVQAGGSLRLSCAASGFTFASYAMGCYIQPPGKEMELVAAITWSGGSTYYADSVKGRFTISRDNAKNTVYLQMNSLKPEDTAVYYCNALVIARNIEMDYWGQGTQVTVSS” belongs “high polyreactivity”.

As to “QVQLVESGGGLVQAGGSLRLSCAASGSTFVYMGGYRQAPGKEREFVAITFSGGRTYADSVKGRFTISRDNAKNTVYLQMNSLKPEDTAVYYCNKGDDFYSTYSYDYWGQGTQVTVSS”, the “polyreactivity (PSR sort gate)” value is reported as “low polyreactivity”.
